The values below come from the supplement of paper PMC11246515.

± gives the standard deviation of the averaged measurements. Some results are limits rather than exact numbers.

The nature of the data set: total protein half-life in vivo (active degradation + dilution); higher = more stable protein.
The mark [1] stands for this setting: wild type E. coli NCM3722, growth: C-lim chemostat, doubling time 3 h.
Where [2] appears, read: wild type E. coli NCM3722, growth: C-lim chemostat, doubling time 6 h.
Setting [3] is: wild type E. coli NCM3722, growth: C-lim chemostat, doubling time 12 h.
[4] abbreviates: E. coli NCM3722 delta-clpP delta-lon delta-hslV, growth: N-lim chemostat, doubling time 6 h.
Where [5] appears, read: E. coli NCM3722 delta-clpP, growth: N-lim chemostat, doubling time 6 h.
[6] abbreviates: E. coli NCM3722 delta-hslV, growth: N-lim chemostat, doubling time 6 h.
[7] abbreviates: E. coli NCM3722 delta-lon, growth: N-lim chemostat, doubling time 6 h.
Setting [8] is: E. coli NCM3722 delta-smpB, growth: N-lim chemostat, doubling time 6 h.
[9] abbreviates: wild type E. coli NCM3722, growth: N-lim chemostat, doubling time 6 h.
Setting [10] is: wild type E. coli NCM3722, growth: N-lim chemostat, doubling time 12 h.
Where [11] appears, read: wild type E. coli NCM3722, growth: P-lim chemostat, doubling time 6 h.
Setting [12] is: wild type E. coli NCM3722, growth: P-lim chemostat, doubling time 12 h.

As to “MNRWENIQLTHENRLAPRAYFFSYDSVAQARTFARETSSLFLPLSGQWNFHFFDHPLQVPEAFTSELMADWGHITVPAMWQMEGHGKLQYTDEGFPFPIDVPFVPSDNPTGAYQRIFTLSDGWQGKQTLIKFDGVETYFEVYVNGQYVGFSKGSRLTAEFDISAMVKTGDNLLCVRVMQWADSTYVEDQDMWWSAGIFRDVYLVGKHLTHINDFTVRTDFDEAYCDATLSCEVVLENLAASPVVTTLEYTLFDGERVVHSSAIDHLAIEKLTSASFAFTVEQPQQWSAESPYLYHLVMTLKDANGNVLEVVPQRVGFRDIKVRDGLFWINNRYVMLHGVNRHDNDHRKGRAVGMDRVEKDLQLMKQHNINSVRTAHYPNDPRFYELCDIYGLFVMAETDVESHGFANVGDISRITDDPQWEKVYVERIVRHIHAQKNHPSIIIWSLGNESGYGCNIRAMYHAAKALDDTRLVHYEEDRDAEVVDIISTMYTRVPLMNEFGEYPHPKPRIICEYAHAMGNGPGGLTEYQNVFYKHDCIQGHYVWEWCDHGIQAQDDHGNVWYKFGGDYGDYPNNYNFCLDGLIYSDQTPGPGLKEYKQVIAPVKIHARDLTRGELKVENKLWFTTLDDYTLHAEVRAEGETLATQQIKLRDVAPNSEAPLQITLPQLDAREAFLNITVTKDSRTRYSEAGHPIATYQFPLKENTAQPVPFAPNNARPLTLEDDRLSCTVRGYNFAITFSKMSGKPTSWQVNGESLLTREPKINFFKPMIDNHKQEYEGLWQPNHLQIMQEHLRDFAVEQSDGEVLIISRTVIAPPVFDFGMRCTYIWRIAADGQVNVALSGERYGDYPHIIPCIGFTMGINGEYDQVAYYGRGPGENYADSQQANIIDIWRSTVDAMFENYPFPQNNGNRQHVRWTALTNRHGNGLLVVPQRPINFSAWHYTQENIHAAQHCNELQRSDDITLNLDHQLLGLGSNSWGSEVLDSWRVWFRDFSYGFTLLPVSGGEATAQSLASYEFGAGFFSTNLHSENKQ”, the “total protein half-life in vivo” value was determined as 3.17 ± 0.0082 h under setting [1], 5.26 ± 0.23 h under setting [2] and 12.4 ± 2 h under setting [3].
As for “MRRVNILCSFALLFASHTSLAVTYPLPPEGSRLVGQSFTVTVPDHNTQPLETFAAQYGQGLSNMLEANPGADVFLPKSGSQLTIPQQLILPDTVRKGIVVNVAEMRLYYYPPDSNTVEVFPIGIGQAGRETPRNWVTTVERKQEAPTWTPTPNTRREYAKRGESLPAFVPAGPDNPMGLYAIYIGRLYAIHGTNANFGIGLRVSQGCIRLRNDDIKYLFDNVPVGTRVQIIDQPVKYTTEPDGSNWLEVHEPLSRNRAEYESDRKVPLPVTPSLRAFINGQEVDVNRANAALQRRSGMPVQISSGSRQMF”, the “total protein half-life in vivo” value under setting [4] worked out at 5.58 ± 1.1 h; the “total protein half-life in vivo” value under setting [5] is 6.17 ± 0.48 h; the “total protein half-life in vivo” value under setting [6] worked out at 5.997 ± 0.037 h; the “total protein half-life in vivo” value under setting [7] was 6.9 ± 1 h; the “total protein half-life in vivo” value under setting [8] is 5.83 ± 0.5 h; the “total protein half-life in vivo” value under setting [1] was found to be 3.35 ± 0.46 h. The “total protein half-life in vivo” value came out at 5.64 ± 0.53 h under setting [2]; 10.128 ± 0.0088 h under setting [3]; 6.43 ± 0.88 h under setting [9]; 11.4 ± 0.34 h under setting [10]; 5.24 ± 0.69 h under setting [11]; 11.3 ± 0.51 h under setting [12].
Consider “MEIYENENDQVEAVKRFFAENGKALAVGVILGVGALIGWRYWNSHQVDSARSASLAYQNAVTAVSEGKPDSIPAAEKFAAENKNTYGALASLELAQQFVDKNELEKAAAQLQQGLADTSDENLKAVINLRLARVQVQLKQADAALKTLDTIKGEGWAAIVADLRGEALLSKGDKQGARSAWEAGVKSDVTPALSEMMQMKINNLSI”, for which the “total protein half-life in vivo” value is, setting by setting: under setting [4], 5.43 ± 0.11 h; under setting [5], 5.4 ± 0.35 h; under setting [6], 5.99 ± 0.76 h; under setting [7], 6.64 ± 0.78 h; under setting [8], 5.52 ± 0.16 h; under setting [1], 2.83 ± 0.14 h. Moreover, the “total protein half-life in vivo” value is, setting by setting: under setting [2], 4.7 ± 0.38 h; under setting [3], 10.3 ± 0.96 h; under setting [9], 5.8 ± 0.6 h; under setting [10], 11.9 ± 0.17 h; under setting [11], 4.55 ± 0.6 h; under setting [12], 8.84 ± 0.18 h.
As for “MIRQVIQRISNPEASIESLQERRFWLQCERAYTWQPIYQTCGRLMAVELLTVVTHPLNPSQRLPPDRYFTEITVSHRMEVVKEQIDLLAQKADFFIEHGLLASVNIDGPTLIALRQQPKILRQIERLPWLRFELVEHIRLPKDSTFASMCEFGPLWLDDFGTGMANFSALSEVRYDYIKIARELFVMLRQSPEGRTLFSQLLHLMNRYCRGVIVEGVETPEEWRDVQNSPAFAAQGWFLSRPAPIETLNTAVLAL”, the “total protein half-life in vivo” value under setting [1] was found to be 0.512 ± 0.23 h.
“MPHSLFSTDTDLTAENLLRLPAEFGCPVWVYDAQIIRRQIAALKQFDVVRFAQKACSNIHILRLMREQGVKVDSVSLGEIERALAAGYNPQTHPDDIVFTADVIDQATLERVSELQIPVNAGSVDMLDQLGQVSPGHRVWLRVNPGFGHGHSQKTNTGGENSKHGIWYTDLPAALDVIQRHHLQLVGIHMHIGSGVDYAHLEQVCGAMVRQVIEFGQDLQAISAGGGLSVPYQQGEEAVDTEHYYGLWNAAREQIARHLGHPVKLEIEPGRFLVAQSGVLITQVRSVKQMGSRHFVLVDAGFNDLMRPAMYGSYHHISALAADGRSLEHAPTVETVVAGPLCESGDVFTQQEGGNVETRALPEVKAGDYLVLHDTGAYGASMSSNYNSRPLLPEVLFDNGQARLIRRRQTIEELLALELL”: the “total protein half-life in vivo” value by setting is: under setting [4], 3.43 ± 0.39 h; under setting [5], 2.81 ± 0.36 h; under setting [6], 2.41 ± 0.37 h; under setting [8], 2.06 ± 0.69 h; under setting [1], 2.91 ± 0.14 h; under setting [2], 4.76 ± 0.92 h. The “total protein half-life in vivo” value under setting [3] came out at 8.09 ± 0.86 h; the “total protein half-life in vivo” value under setting [9] was found to be 2.53 ± 0.12 h; the “total protein half-life in vivo” value under setting [10] was 3.6 ± 0.33 h; the “total protein half-life in vivo” value under setting [11] was determined as 5.29 ± 0.3 h; the “total protein half-life in vivo” value under setting [12] was 9.66 ± 0.16 h.
With “MFLINGHKQESLAVSDRATQFGDGCFTTARVIDGKVSLLSAHIQRLQDACQRLMISCDFWPQLEQEMKTLAAEQQNGVLKVVISRGSGGRGYSTLNSGPATRILSVTAYPAHYDRLRNEGITLALSPVRLGRNPHLAGIKHLNRLEQVLIRSHLEQTNADEALVLDSEGWVTECCAANLFWRKGNVVYTPRLDQAGVNGIMRQFCIRLLAQSSYQLVEVQASLEESLQADEMVICNALMPVMPVCACGDVSFSSATLYEYLAPLCERPN”, the “total protein half-life in vivo” value came to 5.13 ± 0.82 h under setting [4]; 3.87 ± 0.15 h under setting [5]; 4.279 ± 0.035 h under setting [7]; 3.89 ± 0.18 h under setting [8]; 3.04 ± 0.24 h under setting [1]; 5.58 ± 0.27 h under setting [2]. In addition, the “total protein half-life in vivo” value by setting is: under setting [3], 10.9 ± 0.86 h; under setting [9], 3.82 ± 0.069 h; under setting [10], 6.33 ± 0.35 h; under setting [11], 6.45 ± 1.4 h; under setting [12], 10.7 ± 1 h.
On to “MRNIIKLALAGLLSVSTFAVAAESSPEALRIGYQKGSIGMVLAKSHQLLEKRYPESKISWVEFPAGPQMLEALNVGSIDLGSTGDIPPIFAQAAGADLVYVGVEPPKPKAEVILVAENSPIKTVADLKGHKVAFQKGSSSHNLLLRALRQAGLKFTDIQPTYLTPADARAAFQQGNVDAWAIWDPYYSAALLQGGVRVLKDGTDLNQTGSFYLAARPYAEKNGAFIQGVLATFSEADALTRSQREQSIALLAKTMGLPAPVIASYLDHRPPTTIKPVNAEVAALQQQTADLFYENRLVPKKVDIRQRIWQPTQLEGKQL”, for which the “total protein half-life in vivo” value is, setting by setting: under setting [4], 5.27 ± 1.8 h; under setting [5], 5.07 ± 0.72 h; under setting [7], 4.66 ± 1.7 h; under setting [8], 5.32 ± 0.25 h; under setting [1], > 4 h; under setting [2], 4.74 ± 0.1 h. Also, the “total protein half-life in vivo” value came to 8.06 h under setting [3], 5.64 h under setting [9] and 12.52 ± 0.069 h under setting [10].
